Results published in PMC8867601, “The TERB1 MYB domain suppresses telomere erosion in meiotic prophase I”.
Residue numbers refer to the chain shown, from its start.

What was measured:
Settings in all cases: protein: recombinant; tags: none after Ulp1 cleavage of His-Smt3; label: 32P (T4 PNK)
hTERB1-MYB H716R = molecular target: T1, hTERB1-MYB H716R (Homo sapiens, UniProt Q8NA31 666-719, H716R); experiment: EMSA; 150 nM probe; 50 mM Tris-HCl pH 8.0, 6.5% glycerol, 20 mM NaCl, 5 mM DTT, 150 nM probe, 10 ul, 30 min on ice; 4-20% TBE native gel
T1 sequence: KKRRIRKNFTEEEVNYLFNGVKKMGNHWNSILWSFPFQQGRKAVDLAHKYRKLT

hTERB1-MYB A712K = molecular target: T2, hTERB1-MYB A712K (Homo sapiens, UniProt Q8NA31 666-719, A712K); experiment: as above
T2 sequence: T1 sequence with A47K, R51H

hTERB1-MYB H713D = molecular target: T3, hTERB1-MYB H713D (Homo sapiens, UniProt Q8NA31 666-719, H713D); experiment: as above
T3 sequence: T1 sequence with H48D, R51H

hTERB1-MYB triple mutant = molecular target: T4, hTERB1-MYB triple mutant (Homo sapiens, UniProt Q8NA31 666-719, A712K;H713D;H716R); experiment: EMSA; 2-8 uM protein, 150 nM probe; 50 mM Tris-HCl pH 8.0, 6.5% glycerol, 20 mM NaCl, 5 mM DTT, 150 nM probe, 10 ul, 30 min on ice; 4-20% TBE native gel
T4 sequence: T1 sequence with A47K, H48D

Measured: binding result

B1: dsDNA_telo_8-mer (TTAGGG)8 (dsDNA)
DNA 1: TTAGGGTTAGGGTTAGGGTTAGGGTTAGGGTTAGGGTTAGGGTTAGGG
DNA 2: CCCTAACCCTAACCCTAACCCTAACCCTAACCCTAACCCTAACCCTAA
no binding: hTERB1-MYB H716R | hTERB1-MYB A712K | hTERB1-MYB H713D | hTERB1-MYB triple mutant
